Like-named read-outs stand apart in the source and are kept apart here.
Tests used:
[1] = target: T1, CH2-4 constant domains of human IgE linked to a transmembrane protein, on 293 cells (human, UniProt P01854-1 104-428); experiment: flow cytometry, 293 cells expressing human IgE CH2-4
T1 construct: domain: CH2-4 constant domains; also called human IgE-expressing 293 cells
Method: (§1) First, 25 μg of DNA was added to Opti-MEM Reduced Serum Medium (Gibco) mixed with 75 μL of 40 kDa Polyethylenimine (PEI) for a final concentration of 1 μg DNA and 2.5 μg PEI per mL of culture volume. The plasmid DNA was allowed to pre-complex with PEI for 15 minutes before transferring the mixture to 25 mL of 293 cells in a shake flask at a density of 2×10⁶ cells/mL. […] Next, 50 μL of cells were transferred to wells of a round-bottom 96-well assay plate for a total of 50,000 293 cells per well. In a separate 96-well plate, monomeric VHH-hIgG1-Fc fusion proteins were titrated 1:5 in a 8-point dilution series starting at 1 μM in FACS Buffer with the 8th point containing no antibody. 50 μL from each antibody dilution was added to wells containing 50 μL of FACS Buffer with transfected 293 cells which produced a 2-fold dilution of the antibody concentrations from the dilution series resulting in a 500 nM final, starting concentration of the test article titration. The test articles and 293 cells were incubated together at 4° C. for 30 minutes. Next, the 96-well plates were centrifuged at 400×g for 5 minutes and the FACS buffer containing unbound antibody was decanted. Cells were washed 1× with 150 μL 4° C. FACS Buffer. […] The cells were incubated with the fluorophore conjugated detection antibody at 4° C. for 20 minutes. 293 cells were then centrifuged and washed once as described above. Cell pellets were resuspended in 30 μL FACS Buffer and analyzed on an iQue Screener Plus flow cytometer (Sartorius, IntelliCyt) with a 1 second sip time and 1 second void time. Mean fluorescent intensity was calculated using iQue onboard software gating on GFP+ or citrine+ cells.

[2] = target: T1, CH2-4 constant domains of human IgE …; experiment: as above; remark: listed apart in the source
Method: as §1

T1 sequence (P01854 other isoform, or with tags, fused parts or gaps): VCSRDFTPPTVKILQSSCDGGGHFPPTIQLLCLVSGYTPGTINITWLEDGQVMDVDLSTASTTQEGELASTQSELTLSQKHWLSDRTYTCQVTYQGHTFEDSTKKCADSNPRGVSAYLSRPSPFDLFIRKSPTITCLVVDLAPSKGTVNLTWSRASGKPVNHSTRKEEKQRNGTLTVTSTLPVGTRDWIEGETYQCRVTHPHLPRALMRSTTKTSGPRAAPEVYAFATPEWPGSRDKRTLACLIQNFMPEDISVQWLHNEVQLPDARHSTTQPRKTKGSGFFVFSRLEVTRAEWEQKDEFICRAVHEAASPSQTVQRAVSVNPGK

| Binder | Bmax [1] | Kd [1] | Kd [2] | Bmax [2] |
| --- | --- | --- | --- | --- |
| hzB10v27-NNT (Fc fusion, monomeric) VHH-Fc: EVQLLESGGGEVQPGGSLRLSCVASGLTFSSYNMGWLRQAPGKEREFVGLSGSSSTSTYYAESVKGRFTISRDNSKNTVYLQMNSLRAEDTAVYYCAARRLLSTYWSDRSWDFWGQGTQVTVEPGGPSVFLFPPKPKDTLMISRTPEVTCVVVDVSHEDPEVKFNWYVDGVEVHNAKTKPREEQYNSTYRVVSVLTVLHQDWLNGKEYKCKVSNKALPAPIEKTISKAKGQPREPQVYTLPPSRDELTKNQVNLTCLVKGFYPSDIAVEWESNGQPENNYKTTPPVLDSDGSFFLNSTLTVDKSRWQQGNVFSCSVMHEALHNHYTQKSLSLSPGK | 753000 MFI | 1.16 nM |  |  |
| hzB10v28-NNT (Fc fusion, monomeric) VHH-Fc: EVQLLESGGGEVQPGGSLRLSCVASGLTFSSYNMGWLRQAPGKEREFVGLSGSSSTSTYYAESVKGRFTISRDNSKNTVYLQMSSLRAEDTAVYYCAARRLLSTYWSDRSWDFWGQGTQVTVEPGGPSVFLFPPKPKDTLMISRTPEVTCVVVDVSHEDPEVKFNWYVDGVEVHNAKTKPREEQYNSTYRVVSVLTVLHQDWLNGKEYKCKVSNKALPAPIEKTISKAKGQPREPQVYTLPPSRDELTKNQVNLTCLVKGFYPSDIAVEWESNGQPENNYKTTPPVLDSDGSFFLNSTLTVDKSRWQQGNVFSCSVMHEALHNHYTQKSLSLSPGK | 1.12e+08 MFI | 7070 nM |  |  |
| hzB10v14-NNT (Fc fusion, monomeric) VHH-Fc: EVQLLESGGGEVQPGGSLRLSCVASGLTFSSYNMGWLRQAPGKEREFVGLSGSSSTSTYYADSVKGRFTISRDNSKNTVYLQMNSLKPEDTAVYYCAARRLLSTYWSDRSWDFWGQGTQVTVEPGGPSVFLFPPKPKDTLMISRTPEVTCVVVDVSHEDPEVKFNWYVDGVEVHNAKTKPREEQYNSTYRVVSVLTVLHQDWLNGKEYKCKVSNKALPAPIEKTISKAKGQPREPQVYTLPPSRDELTKNQVNLTCLVKGFYPSDIAVEWESNGQPENNYKTTPPVLDSDGSFFLNSTLTVDKSRWQQGNVFSCSVMHEALHNHYTQKSLSLSPGK |  |  | 2.11 nM | 1.95e+06 MFI |
| hzB10v15-NNT (Fc fusion, monomeric) VHH-Fc: EVQLLESGGGEVQPGGSLRLSCVASGLTFSSYNMGWVRQAPGKEREFVSLSGSSSTSTYYADSVKGRFTISRDNSKNTVYLQMNSLKPEDTAVYYCAARRLLSTYWSDRSWDFWGQGTQVTVEPGGPSVFLFPPKPKDTLMISRTPEVTCVVVDVSHEDPEVKFNWYVDGVEVHNAKTKPREEQYNSTYRVVSVLTVLHQDWLNGKEYKCKVSNKALPAPIEKTISKAKGQPREPQVYTLPPSRDELTKNQVNLTCLVKGFYPSDIAVEWESNGQPENNYKTTPPVLDSDGSFFLNSTLTVDKSRWQQGNVFSCSVMHEALHNHYTQKSLSLSPGK |  |  | 10 nM | 1.89e+06 MFI |
| hzB10v20-NNT (Fc fusion, monomeric) VHH-Fc: EVQLLESGGGEVQPGGSLRLSCVASGLTFSSYNMGWLRQAPGKEREFVGLSGSSSTSTYYADSVKGRFTISRDNSKNTLYLQMNSLKPEDTAVYYCAARRLLSTYWSDRSWDFWGQGTQVTVEPGGPSVFLFPPKPKDTLMISRTPEVTCVVVDVSHEDPEVKFNWYVDGVEVHNAKTKPREEQYNSTYRVVSVLTVLHQDWLNGKEYKCKVSNKALPAPIEKTISKAKGQPREPQVYTLPPSRDELTKNQVNLTCLVKGFYPSDIAVEWESNGQPENNYKTTPPVLDSDGSFFLNSTLTVDKSRWQQGNVFSCSVMHEALHNHYTQKSLSLSPGK |  |  | 6.01 nM | 2.24e+06 MFI |
| hzB10v7-NNT (Fc fusion, monomeric) VHH-Fc: EVQLVQSGGELVQAGGSLRLSCVASGLTFSSYNMGWLRQAPGKEREFVGLSGSSSTSTYYADSVKGRFTISRDNSKNTVYLQMNSLKPEDTAVYYCAARRMLSTYWSDRSWDFWGQGTQVTVKPGGPSVFLFPPKPKDTLMISRTPEVTCVVVDVSHEDPEVKFNWYVDGVEVHNAKTKPREEQYNSTYRVVSVLTVLHQDWLNGKEYKCKVSNKALPAPIEKTISKAKGQPREPQVYTLPPSRDELTKNQVNLTCLVKGFYPSDIAVEWESNGQPENNYKTTPPVLDSDGSFFLNSTLTVDKSRWQQGNVFSCSVMHEALHNHYTQKSLSLSPGK |  |  | 3.71 nM | 3.34e+06 MFI |
| hzB10v18-NNT (Fc fusion, monomeric) VHH-Fc: EVQLLESGGGEVQPGGSLRLSCVASGLTFSSYNMGWLRQAPGKEREFVGLSGSSSTSTYYADTVKGRFTISRDNSKNTVYLQMNSLKPEDTAVYYCAARRLLSTYWSDRSWDFWGQGTQVTVEPGGPSVFLFPPKPKDTLMISRTPEVTCVVVDVSHEDPEVKFNWYVDGVEVHNAKTKPREEQYNSTYRVVSVLTVLHQDWLNGKEYKCKVSNKALPAPIEKTISKAKGQPREPQVYTLPPSRDELTKNQVNLTCLVKGFYPSDIAVEWESNGQPENNYKTTPPVLDSDGSFFLNSTLTVDKSRWQQGNVFSCSVMHEALHNHYTQKSLSLSPGK |  |  | 5.07 nM | 1.95e+06 MFI |
| hzB10v3-NNT (Fc fusion, monomeric) VHH-Fc: EVQLVQSGGELVQAGGSLRLSCVASGLTFSSYNMGWVRQAPGKEREFVGMSGSSSTSTYYADSVKGRFTISRDNSKNTVYLQMNSLKPEDTAVYYCAARRMLSTYWSDRSWDFWGQGTQVTVKPGGPSVFLFPPKPKDTLMISRTPEVTCVVVDVSHEDPEVKFNWYVDGVEVHNAKTKPREEQYNSTYRVVSVLTVLHQDWLNGKEYKCKVSNKALPAPIEKTISKAKGQPREPQVYTLPPSRDELTKNQVNLTCLVKGFYPSDIAVEWESNGQPENNYKTTPPVLDSDGSFFLNSTLTVDKSRWQQGNVFSCSVMHEALHNHYTQKSLSLSPGK |  |  | 342 nM | 1.69e+06 MFI |

Second part, the binder after the results:

| Bmax [1] | Kd [1] | Kd [2] | Bmax [2] | Binder |
| --- | --- | --- | --- | --- |
|  |  | 1.95 nM |  | hzB10v6-NNT (Fc fusion, monomeric) VHH-Fc: EVQLVQSGGELVQAGGSLRLSCVASGLTFSSYNMGWLRQAPGKEREFVGMSGSSSTSTYYADSVKGRFTISRDNSKNTVYLQMNSLKPEDTAVYYCAARRMLSTYWSDRSWDFWGQGTQVTVRPGGPSVFLFPPKPKDTLMISRTPEVTCVVVDVSHEDPEVKFNWYVDGVEVHNAKTKPREEQYNSTYRVVSVLTVLHQDWLNGKEYKCKVSNKALPAPIEKTISKAKGQPREPQVYTLPPSRDELTKNQVNLTCLVKGFYPSDIAVEWESNGQPENNYKTTPPVLDSDGSFFLNSTLTVDKSRWQQGNVFSCSVMHEALHNHYTQKSLSLSPGK |
|  |  | 1.81 nM | 2.46e+06 MFI | hzB10v2-NNT (Fc fusion, monomeric) VHH-Fc: EVQLVQSGGELVQAGGSLRLSCVASGLTFSSYNMGWVRQAPGKEREFVSMSGSSSTSTYYADSVKGRFTISRDNSKNTVYLQMNSLKPEDTAVYYCAARRMLSTYWSDRSWDFWGQGTQVTVKPGGPSVFLFPPKPKDTLMISRTPEVTCVVVDVSHEDPEVKFNWYVDGVEVHNAKTKPREEQYNSTYRVVSVLTVLHQDWLNGKEYKCKVSNKALPAPIEKTISKAKGQPREPQVYTLPPSRDELTKNQVNLTCLVKGFYPSDIAVEWESNGQPENNYKTTPPVLDSDGSFFLNSTLTVDKSRWQQGNVFSCSVMHEALHNHYTQKSLSLSPGK |
|  |  | 1.89 nM | 2.23e+06 MFI | hzB10v16-NNT (Fc fusion, monomeric) VHH-Fc: EVQLLESGGGEVQPGGSLRLSCVASGLTFSSYNMGWLRQAPGKEREFVGLSGSSSTSTYYAESVKGRFTISRDNSKNTVYLQMNSLKPEDTAVYYCAARRLLSTYWSDRSWDFWGQGTQVTVEPGGPSVFLFPPKPKDTLMISRTPEVTCVVVDVSHEDPEVKFNWYVDGVEVHNAKTKPREEQYNSTYRVVSVLTVLHQDWLNGKEYKCKVSNKALPAPIEKTISKAKGQPREPQVYTLPPSRDELTKNQVNLTCLVKGFYPSDIAVEWESNGQPENNYKTTPPVLDSDGSFFLNSTLTVDKSRWQQGNVFSCSVMHEALHNHYTQKSLSLSPGK |
|  |  | 1.7 nM | 2.07e+06 MFI | hzB10v17-NNT (Fc fusion, monomeric) VHH-Fc: EVQLLESGGGEVQPGGSLRLSCVASGLTFSSYNMGWLRQAPGKEREFVGLSGSSSTSTYYADAVKGRFTISRDNSKNTVYLQMNSLKPEDTAVYYCAARRLLSTYWSDRSWDFWGQGTQVTVEPGGPSVFLFPPKPKDTLMISRTPEVTCVVVDVSHEDPEVKFNWYVDGVEVHNAKTKPREEQYNSTYRVVSVLTVLHQDWLNGKEYKCKVSNKALPAPIEKTISKAKGQPREPQVYTLPPSRDELTKNQVNLTCLVKGFYPSDIAVEWESNGQPENNYKTTPPVLDSDGSFFLNSTLTVDKSRWQQGNVFSCSVMHEALHNHYTQKSLSLSPGK |
|  |  | 1.37 nM |  | hzB10v1-NNT (Fc fusion, monomeric) VHH-Fc: EVQLLESGGGLVQPGGSLRLSCVASGLTFSSYNMGWLRQAPGKEREFVGMSGSSSTSTYYADSVKGRFTISRDNSKNTVYLQMNSLKPEDTAVYYCAARRMLSTYWSDRSWDFWGQGTQVTVKPGGPSVFLFPPKPKDTLMISRTPEVTCVVVDVSHEDPEVKFNWYVDGVEVHNAKTKPREEQYNSTYRVVSVLTVLHQDWLNGKEYKCKVSNKALPAPIEKTISKAKGQPREPQVYTLPPSRDELTKNQVNLTCLVKGFYPSDIAVEWESNGQPENNYKTTPPVLDSDGSFFLNSTLTVDKSRWQQGNVFSCSVMHEALHNHYTQKSLSLSPGK |
